# T1: APG30128-L32-nAPG07433.1 (synthetic)
# T1 chain: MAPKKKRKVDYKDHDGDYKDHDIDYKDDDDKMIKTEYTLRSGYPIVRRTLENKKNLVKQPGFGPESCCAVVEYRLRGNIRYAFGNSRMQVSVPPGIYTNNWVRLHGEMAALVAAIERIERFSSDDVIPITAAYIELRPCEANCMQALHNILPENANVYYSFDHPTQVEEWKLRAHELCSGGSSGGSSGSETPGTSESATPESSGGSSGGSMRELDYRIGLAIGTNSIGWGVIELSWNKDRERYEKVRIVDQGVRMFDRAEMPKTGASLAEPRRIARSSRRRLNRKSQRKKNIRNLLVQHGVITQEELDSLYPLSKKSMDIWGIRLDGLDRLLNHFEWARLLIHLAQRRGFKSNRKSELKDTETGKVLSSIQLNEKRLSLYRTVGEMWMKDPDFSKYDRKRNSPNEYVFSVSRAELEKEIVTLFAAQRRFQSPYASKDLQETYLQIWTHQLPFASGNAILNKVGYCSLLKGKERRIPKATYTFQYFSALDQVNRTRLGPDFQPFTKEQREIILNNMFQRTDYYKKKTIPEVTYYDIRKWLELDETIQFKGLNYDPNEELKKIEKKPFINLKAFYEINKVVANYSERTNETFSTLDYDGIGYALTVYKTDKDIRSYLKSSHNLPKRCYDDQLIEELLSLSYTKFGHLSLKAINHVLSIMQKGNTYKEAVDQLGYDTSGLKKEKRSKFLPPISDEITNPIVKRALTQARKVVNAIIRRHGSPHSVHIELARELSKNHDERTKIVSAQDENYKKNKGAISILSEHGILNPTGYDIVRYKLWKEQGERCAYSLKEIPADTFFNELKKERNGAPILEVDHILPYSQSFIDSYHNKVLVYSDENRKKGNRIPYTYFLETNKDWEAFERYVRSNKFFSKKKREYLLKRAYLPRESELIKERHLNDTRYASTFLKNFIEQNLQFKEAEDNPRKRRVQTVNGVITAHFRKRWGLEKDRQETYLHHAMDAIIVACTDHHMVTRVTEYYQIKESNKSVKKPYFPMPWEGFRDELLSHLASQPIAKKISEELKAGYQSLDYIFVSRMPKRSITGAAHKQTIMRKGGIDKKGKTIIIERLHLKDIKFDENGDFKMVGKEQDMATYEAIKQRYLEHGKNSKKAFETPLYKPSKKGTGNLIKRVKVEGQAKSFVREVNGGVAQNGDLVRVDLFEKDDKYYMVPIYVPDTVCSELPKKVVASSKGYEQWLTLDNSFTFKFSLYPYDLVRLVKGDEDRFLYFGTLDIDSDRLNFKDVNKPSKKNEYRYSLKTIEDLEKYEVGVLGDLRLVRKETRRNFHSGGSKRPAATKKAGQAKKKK
# B1: SGN000930 sgRNA ; SGN000930 target (ssRNA ; dsDNA)
# RNA: GAACAACUCAAAUGGAAAUGAAUAUGUCAUAGUUCCAUGAAAGCCAAAAGUGGCUUUGAUGUUUCUAUGAUAAGGGUUUCGGCCCGUGGCGUCGGGGAUCGCCUGCCCAUUCCGAUGGGCUUCUCCCCAUUUAUU
# DNA 1: GAACAACTCAAATGGAAATGAATAT
# DNA 2: ATATTCATTTCCATTTGAGTTGTTC
# Biological target: T1, APG30128-L32-nAPG07433.1
# Assay: cell_activity; HEK293FT; PAM SEQ 152
# Details: tags: SV40 NLS, 3xFLAG N-term; nucleoplasmin NLS C-term
# How it was run: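 Editing read out by next-generation sequencing (MiSeq 2×250) of PCR amplicons spanning the target site, analysed for INDELs or % cytosine conversion per position (position 1 nearest PAM).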
binder,measurement,value
B1,activity,2.03 % mutated reads

# Source: patent US20240301385, “DNA MODIFYING ENZYMES AND ACTIVE FRAGMENTS AND VARIANTS THEREOF AND METHODS OF USE” (LIFEEDIT THERAPEUTICS, INC., published 2024)
